These results are taken from patent publication KR20140085790A (dated 2014).

Usually Kd stands for the free concentration of one partner at which half of the binding sites on the other are occupied at equilibrium, for simple one-to-one binding. What is called IC50 is the midpoint of a concentration-inhibition curve. Higher therefore signals lower potency.

For assay [1], the target named is T1, 인간 DLL4 단백질 세포외 도메인 (R&D Systems Cat: 1506-D4/CF) (human, UniProt Q9NR61 27-529).
T1 construct: extracellular domain; Bought protein; also called hDLL4-His; human DLL4; not shown: His tag (hDLL4-His)
T1 sequence (Q9NR61 27-529): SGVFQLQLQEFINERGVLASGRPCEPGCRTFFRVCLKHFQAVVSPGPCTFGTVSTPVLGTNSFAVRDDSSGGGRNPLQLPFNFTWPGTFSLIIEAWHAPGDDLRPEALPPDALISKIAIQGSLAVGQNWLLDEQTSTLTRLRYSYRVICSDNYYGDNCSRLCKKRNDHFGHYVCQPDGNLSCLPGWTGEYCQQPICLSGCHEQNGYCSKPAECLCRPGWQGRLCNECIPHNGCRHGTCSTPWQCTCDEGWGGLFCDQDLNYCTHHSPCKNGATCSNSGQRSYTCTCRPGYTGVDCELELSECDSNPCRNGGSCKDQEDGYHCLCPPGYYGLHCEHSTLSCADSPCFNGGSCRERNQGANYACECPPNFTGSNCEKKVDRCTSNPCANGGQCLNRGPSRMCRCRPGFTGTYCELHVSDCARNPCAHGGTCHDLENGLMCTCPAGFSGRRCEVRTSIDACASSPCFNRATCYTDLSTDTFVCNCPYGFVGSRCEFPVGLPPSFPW
The assay is described as follows: SPR (BIACORE T200), DLL4 coated on the chip, antibody injected.

Assay [2] addresses T1, 인간 DLL4 단백질 세포외 도메인 (R&D Systems Cat: …). In words: competition ELISA: antibody (2 pM-35 nM) premixed with DLL4 antigen (800 ng/ml), added to coated hNotch-1-hFc; bound DLL4 detected with an HRP anti-His reagent. For orientation: In an ELISA, binding on a coated surface is turned into a signal by an enzyme label.

B1: 인간 단일클론항체 mh2F (항 DLL4 항체) (antibody, V domains shown)
VH: QVQLVQSGAEVKKPGASVKVSCKASGYTFTSYYLHWVRQAPGQGLEWMGIINPSGGSTSFAQKFQGRVTMTRDTSTSTVYMELSSLRSEDTAVYYCARDSAGGTLDVWGQGTMITVSS
VL: SYELTQPPSVSVAPGKTARITCGGNKIGNKGVHWYQQKPGQAPVLVIYYDKDRPSGIPERFSGSNSGNTATLTISRVEAGDEADYYCQVWDRSTVIFGGGTKLTVLG
notes: Isolated from a human scFv phage library; In ELISA it was detected with an HRP-conjugated anti-Fab reagent; also called anti-DLL4 antibody
In assay [1], B1 gave an equilibrium dissociation constant (Kd) of 5.27 nM. The same molecule displayed a half-maximal inhibitory concentration (IC50) in assay [2] of 1.03 nM.
